Measured values: patent publication US5871960, “Nucleic acids encoding CR5 polypeptide, vector and transformed cell thereof, and expression thereof” (Trustees of Dartmouth College)

Experiments:
[1] = biological target: T1, CR8 bHLH domain (BHLHE40/DEC1) (human, UniProt O14503 SEQ:52-107); experiment: EMSA; same buffer; settings: tags: N-terminal His tag (pRSET-A, Xpress System), 16.6 kD with tag; chain copies: 2 (homodimer, stated); label: 32P 5' end; 5' GATC overhangs
T1 chain: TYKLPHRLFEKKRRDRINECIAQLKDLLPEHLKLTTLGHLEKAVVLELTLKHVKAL
Source text: (§1) The oligonucleotide probes used for the electrophoretic mobility shift assay (EMSA) are as follows: the Class A site used was the CACCTG hexamer (CAGGTG for the opposite strand) from the T5 promoter region of the Drosophila AS-C (Villares, R. et al. (1987) *Cell* 550:415–424) (5'-[…]-3' (SEQ ID NO:17) and 5'-[…]-3' (SEQ ID NO:18) for the opposite strand), the Class B site was the CACGTG hexamer from the USF binding site in the adenovirus major late promoter (Gregor, P. D. et al. (1990) *Genes & Dev.* 4:1730–1740) (5'-[…]-3' (SEQ ID NO:19) and 5'-[…]-3') (SEQ ID NO:20), the Class C site was the CACGCG hexamer (CGCGTG for the opposite strand) from the AS-C T5 promoter (5'-[…]-3' (SEQ ID NO:21) and 5'-[…]-3') (SEQ ID NO:22), and the N-box (CACNAG) was the double hexamer sequence from the Enhancer of split [E(spl)] m8 promoter (Klimbt, C. et al. (1989) *EMBO J.* 8:203–210) (5'-[…]-3' (SEQ ID NO:23) and 5'-[…]-3' (SEQ ID NO:24). One strand of the oligonucleotide was labeled with [g-32P]ATP by T4 polynucleotide kinase, hybridized with three times excess of the opposite strand, and purified using MERmaid oligonucleotide purification kit (BIO 101). […] Samples were analyzed on a 5% native polyacrylamide gel and visualized by autoradiography.

[2] = biological target: T2, daughterless (da) bHLH domain (Drosophila melanogaster, UniProt P11420 P11420:554-607); experiment: EMSA; positive control; settings: tags: supplied by Dr. Michael Caudy, Cornell University Medical College; label: 32P 5' end; 5' GATC overhangs
T2 sequence: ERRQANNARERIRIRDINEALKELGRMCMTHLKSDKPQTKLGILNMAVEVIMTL
Source text: as §1

[3] = biological target: T1, CR8 bHLH domain (BHLHE40/DEC1); experiment: EMSA; 20 mM Hepes pH 7.6, 50 mM KCl, 10 mM DTT, poly(dI-dC), room temperature; self-competition partial at 50-fold and complete at 500-fold excess; settings: tags: N-terminal His tag (pRSET-A, Xpress System), 16.6 kD with tag; chain copies: 2 (homodimer, stated); label: 32P 5' end; 5' GATC overhangs
Experimental: One strand of the oligonucleotide was labeled with [g-32P]ATP by T4 polynucleotide kinase, hybridized with three times excess of the opposite strand, and purified using MERmaid oligonucleotide purification kit (BIO 101). 150 ng of the protein was allowed to bind to 50,000 cpm (equivalent to 0.5 ng in a typical experiment) of the labeled probe for 15 min at room temperature in 20 mM Hepes, pH 7.6, 50 mM KCl, 10 mM DTT, 5% glycerol, 0.5 mM EDTA and 0.3 mg/ml BSA. Two microgram of poly (dI-dC) was added to each […] reaction as on-specific DNA. Samples were analyzed on a 5% native polyacrylamide gel and visualized by autoradiography.
To examine the relative binding affinity, a large excess of non-labeled oligonucleotide was added to the reaction as competitor. […] 0.5 ng of the radiolabeled Class B probe was incubated with CR8 bHLH in the absence (lane 1) or the presence (lanes 2 to 7) of either 25 ng (50-fold excess; lanes 2, 4 and 6) and 250 ng (500-fold excess; lanes 3, 5 and 7) of unlabeled competitors. […] Thus, since all these experiments were done in the absence of other HLH proteins, it appears that CR8 bHLH bound to the Class B sequence as a homodimer with the highest affinity.

B1: Class C probe (AS-C T5 promoter) (dsDNA)
DNA 1: GATCGGCAGCCGGCACGCGACAGGGCC
DNA 2: GATCGGCCCTGTCGCGTGCCGGCTGCC
B1: binds [1].

B2: Class A E-box probe (AS-C T5 promoter) (dsDNA)
DNA 1: GATCGTAGTCACGCAGGTGGGATCCCTA
DNA 2: GATCTAGGGATCCCACCTGCGTGACTAC
B2: binds [2]; no binding [1].

B3: Class B E-box probe (USF site, adenovirus major late promoter) (dsDNA)
DNA 1: GATCGGTGTAGGCCACGTGACCGGGTGT
DNA 2: GATCACACCCGGTCACGTGGCCTACACC
B3: binds [3].
